Source: patent US20210070843A1
Where a chain is given by its changes, count along the chain named.

B1: S06 (antibody, V domains shown)
VH: EVQLVESGGGLVQPGGSLRLSCAASGFTIGGGWIHWVRQAPGKGLEWVAFIGPYGGSTFYADSVKGRFTISADTSKNTAYLQMNSLRAEDTAVYYCARFNFGFWNHMDYWGQGTLVTVSS
VL: DIQMTQSPSSLSASVGDRVTITCRASQDVSSWVAWYQQKPGKAPKLLIYGTTFLHSGVPSRFSGSGSGTDFTLTISSLQPEDFATYYCQQYYNGPLTFGQGTKVEIKR
B2: S45 (antibody, V domains shown)
VH: EVQLVESGGGLVQPGGSLRLSCAASGFTINGSSIHWVRQAPGKGLEWVAYIGPFGGSTYYADSVKGRFTISADTSKNTAYLQMNSLRAEDTAVYYCARFWHGYNLYMDYWGQGTLVTVSS
VL: B1 VL with S30G, S31W, T51A, T52R, H55Y, Y92F
B3: P58 (antibody, V domains shown)
VH: EVQLVESGGGLVQPGGSLRLSCAASGFTIGGGGIHWVRQAPGKGLEWVAWIWPYWGYTYYADSVKGRFTISADTSKNTAYLQMNSLRAEDTAVYYCARFNSYSYSGVMDYWGQGTLVTVSS
VL: DIQMTQSPSSLSASVGDRVTITCRASQDVYSYVAWYQQKPGKAPKLLISSSRGLYSGVPSRFSGSGSGTDFTLTISSLQPEDFATYYCQQYSSFPITFGQGTKVEIKR
B4: S11 (antibody, V domains shown)
VH: B1 VH with G30D, G31N, W33G, F50W, F59S, N100G, F103L, W104H, N105D, H106L
VL: B1 VL with S30Y, G50Y, T51S, T52S, H55Y
B5: Do1 (antibody, V domains shown)
VH: EVQLVESGGGLVQPGGSLRLSCAASGFTIDNGSIHWVRQAPGKGLEWVAWIGPYGGFTSYADSVKGRFTISADTSKNTAYLQMNSLRAEDTAVYYCARFYGSGSSSFMDYWGQGTLVTVSS
VL: B1 VL with S30W, S31G, W32G, Y49F, G50F, T51S, T52R, F53Y, H55Y
B6: P03 (antibody, V domains shown)
VH: EVQLVESGGGLVQPGGSLRLSCAASGFTIDSFGIHWVRQAPGKGLEWVAFIGPFGGSTFYADSVKGRFTISADTSKNTAYLQMNSLRAEDTAVYYCARFDSNSYSYHGIMDYWGQGTLVTVSS
VL: B3 VL with Y30W, S31G, S50W, R52G, G53S, S92Y, S93N, F94W, I96V
B7: P44 (antibody, V domains shown)
VH: EVQLVESGGGLVQPGGSLRLSCAASGFTIDGWWIHWVRQAPGKGLEWVAGIWPFGGFTSYADSVKGRFTISADTSKNTAYLQMNSLRAEDTAVYYCARSYSGYSGDYWGQGTLVTVSS
VL: B1 VL with S30N, S31N, W32N, G50W, T51S, T52S, F53S, H55Y, G94F, L96V
B8: S29 (antibody, V domains shown)
VH: EVQLVESGGGLVQPGGSLRLSCAASGFTISDYWIHWVRQAPGKGLEWVASIWPSGGYTYYADSVKGRFTISADTSKNTAYLQMNSLRAEDTAVYYCARFNWIVGHYMDYWGQGTLVTVSS
VL: B1 VL with S30F, S31G, W32G, G50W, T51S, T52S, F53W, H55Y, N93D, L96I
B9: S48 (antibody, V domains shown)
VH: B1 VH with A24V, G31D, W33S, F50S, F59Y, N100H, F101Y, F103Y, H106N
VL: B1 VL with S30G, S31W, T52R, F53W, H55Y, L78V, N93S, L96I
B10: S10 (antibody, V domains shown)
VH: EVQLVESGGGLVQPGGSLRLSCAASGFTIGGYGIHWVRQAPGKGLEWVASIGPSWGFTFYADSVKGRFTISADTSKNTAYLQMNSLRAEDTAVYYCARFNWVINGVTDYWGQGTLVTVSS
VL: B1 VL with S31Y, W32Y, Y49F, G50W, T51S, H55Y, N93D, G94S, L96M

Tests used:
[1] = target: full-length H1 A/California/07/2009 HA expressed on 293T cells (influenza A virus A/California/07/2009 (H1N1)); assay: cell-based or functional assay
[2] = target: cell surface-expressed H3N2 WN/05 HA trimer (influenza A virus A/Wisconsin/67/2005 (H3N2)); assay: cell-based or functional assay
[3] = target: H7 A/Anhui/1-BALF_RG17/2013 HA on H7N9 AH/13 pseudo virus (influenza A virus A/Anhui/1-BALF_RG17/2013 (H7N9)); assay: cell-based or functional assay
[4] = target: full-length H5 A/Vietnam/1203/2004 HA expressed on 293T cells (influenza A virus A/Vietnam/1203/2004 (H5N1)); assay: cell-based or functional assay
[5] = target: recombinant H3N2 WN/05 HA trimer (hemagglutinin ectodomain of A/Wisconsin/67/2005) (influenza A virus A/Wisconsin/67/2005 (H3N2)); assay: ELISA, coated HA
[6] = target: full-length H1 A/California/07/2009 HA expressed on 293T cells (influenza A virus A/California/07/2009 (H1N1)); assay: flow cytometry, HA-expressing 293T
[7] = target: cell surface-expressed H3N2 WN/05 HA trimer (influenza A virus A/Wisconsin/67/2005 (H3N2)); assay: flow cytometry, HA-expressing 293T
[8] = target: full-length H5 A/Vietnam/1203/2004 HA expressed on 293T cells (influenza A virus A/Vietnam/1203/2004 (H5N1)); assay: flow cytometry, HA-expressing 293T
[9] = target: recombinant H5N1 VN/04 HA trimer (hemagglutinin ectodomain of A/Vietnam/1203/2004) (influenza A virus A/Vietnam/1203/2004 (H5N1)); assay: ELISA, coated HA
[10] = target: recombinant H7N9 AH/13 HA trimer (hemagglutinin ectodomain of A/Anhui/1-BALF_RG17/2013) (influenza A virus A/Anhui/1-BALF_RG17/2013 (H7N9)); assay: ELISA, coated HA

| Molecule | IC50 of pseudo virus neutralization H1N1 CA/09 [1] [µg/mL] | IC50 of true virus neutralization H1N1 CA/09 [1] [µg/mL] | IC50 of pseudo virus neutralization H3N2 WN/05 [2] [µg/mL] | IC50 of pseudo virus neutralization H7N9 AH/13 [3] [µg/mL] | IC50 of pseudo virus neutralization H5N1 VN/04 [4] [µg/mL] | EC50 [5] [µg/mL] | max. MFI [6] [MFI] | EC50 [7] [µg/mL] | max. MFI [7] [MFI] | max. MFI [8] [MFI] | EC50 [9] [µg/mL] | EC50 [6] [µg/mL] | EC50 [10] [µg/mL] | EC50 [8] [µg/mL] |
| --- | --- | --- | --- | --- | --- | --- | --- | --- | --- | --- | --- | --- | --- | --- |
| CR8020 (antibody) | > 100 | > 500 | 0.0477 | 0.052 | > 200 | 0.0194 | 91 | 0.569 | 18000 | 639 |  |  |  |  |
| C05 (antibody) |  |  |  |  |  | 0.00844 |  |  |  |  |  |  |  |  |
| B1 | > 100 | > 500 | > 20 | > 200 | > 200 |  | 1650 |  | 135 | 249 | 0.311 | 3.98 |  |  |
| B2 | > 100 | > 500 | > 20 | > 200 | > 200 |  | 2470 | 15.8 | 529 | 451 | 0.23 | 4.47 |  |  |
| B3 | > 100 | > 500 | > 20 | > 200 | > 200 |  | 6290 | 3.58 | 697 | 6710 | > 10 | 0.25 | 0.504 | 0.366 |
| B4 | > 100 | > 500 | > 20 | > 200 | > 200 |  | 5600 |  | 207 | 434 | 0.0781 | 4.07 |  |  |
| B5 | > 100 | > 500 | > 20 | > 200 | > 200 |  | 228 |  | 278 | 313 | > 10 |  |  |  |
| B6 | > 100 | > 500 | > 20 | > 200 | > 200 |  | 6020 |  | 147 | 216 | > 10 | 0.494 |  |  |
| B7 | > 100 | > 500 | > 20 | > 200 | > 200 |  | 8480 |  | 127 | 188 | 0.1 | 0.466 | 0.163 |  |
| B8 | 0.672 | > 500 | > 20 | > 200 | > 200 |  | 6280 |  | 188 | 367 | > 10 | 4.22 |  |  |
| B9 | > 100 | > 500 | > 20 | > 200 | > 200 |  | 6240 |  | 122 | 875 | 0.0737 | 4.86 |  | 1.92 |
| B10 | 0.349 | 1560 | > 20 | > 200 | 0.267 |  | 10700 | 7.86 | 511 | 1100 | 0.259 | 3.38 |  | 0.79 |
